Patent publication US10245299B2, “Autoassembling peptides for the treatment of pulmonary bulla” (3-D MATRIX, LTD., priority 2014, dated 2019)

Tests used:
Assay type in all cases: physicochemical
[1] = pH and appearance of 2.5% peptide solutions after adding 0.1 N NaOH
Protocol: To adjust the pH level of the peptide solutions by way of example, 0.1 N NaOH was added to 2 mL of 2.5% peptide solutions and their pH and appearance were measured.

[2] = Appearance of 1.5% peptide solutions with various salts at room temperature; conditions: for Appearance: room temperature
Protocol: The effect of salt ionic strength level on the properties of peptide solutions was evaluated to identify optimized salt ionic strength levels for the peptides as described herein. Increasing the salt ionic strength level of PuraMatrix® and other peptides may generally improve its function and mechanical strength for various clinical applications. To adjust the salt ionic strength of the peptide solutions by way of example, various salt buffer solutions including NaCl, KCl, MgCl2, CaCl2 and DPBS (10×) were added to 2 mL of 1.5% peptide solutions.

[3] = Rheological properties of pH adjusted peptide solutions and hydrogels; conditions: KLD12 1%, IEIK13 1%, PuraMatrix® 1% and 2.5%
Protocol: Based on the visual observation of the effect of pH level on the properties of the peptide solutions, the effect on the rheological properties of the peptide solutions after adjusting their pH level to 3.4 (PuraMatrix® and KLD12) or 3.7 (IEIK13) was evaluated. If the pH levels of peptide solutions are higher than 3.5 (PuraMatrix® and KLD12) or 3.7 (IEIK13), the peptide solution began phase separation becoming cloudy. The rheological properties of PuraMatrix®, KLD12 and IEIK13 solutions were higher at pH 3.4. The results are shown in FIG. 2 for KLD12 1%, FIG. 3 for IEIK13 1%, and FIGS. 4-5 for PuraMatrix® 1% and 2.5%, respectively. Stress sweep tests were performed at 10 rad/s. Frequency sweep tests were performed at 1 Pa.
Based on the results of the effect on the rheological properties of the peptide solutions after adjusting their pH level to 3.4 (PuraMatrix® and KLD12) or 3.7 (IEIK13), the effect on the rheological properties of the peptide solutions at various pH levels was evaluated. […] The rheological properties of peptides were evaluated at various concentrations using a rheometer (DHR-1, TA Instruments) with 20 mm plates. The results are shown in FIG. 6A for PuraMatrix® 2.5% solution and FIG. 6B for IEIK13 1.5% solution, respectively. Frequency sweep tests were performed from 1 rad/sec to 10 rad/sec at 1 Pa and the storage modulus at 1 rad/sec was selected for data.
Based on the results of the effect on the rheological properties of the peptide solutions after adjusting their pH level, the effect on the rheological properties of the peptide hydrogels at various pH after DMEM treatment was evaluated and compared to the effect on the rheological properties of the peptide solutions at various pH before DMEM treatment. […] The results are shown in FIGS. 7A-7B for PuraMatrix® and FIGS. 8A-8B for IEIK (SEQ ID NO: 5), respectively. Frequency sweep tests were performed from 1 rad/sec to 10 rad/sec at 1 Pa and the storage modulus at 1 rad/sec was selected for data.

[4] = Gelation of peptide solutions after saline buffer treatment, time sweep; conditions: saline buffer (0.15 M of NaCl); IEIK13 1.5%, KLD12 1.5%, PuraMatrix® 2.5% solution
Protocol: The effect of salt ionic strength level surrounding peptide solution on the properties of peptide solutions was evaluated to identify the possibility of peptide gelation when the peptide solution is placed into the environment where salt ionic strength level is high. […] Without pH effect, the effect of saline treatment on gelation of peptide solutions were evaluated. […] This is because IEIK13 is much more sensitive to salt ionic strength levels. Fast gelation of IEIK13 at the salt ionic strength level similar to body fluid isotonic salt level may generally improve its function and gelation speed for various clinical applications. The results are shown in FIG. 19 for IEIK13, KLD12 and PuraMatrix® solutions. Time sweep tests were performed at 1 rad/sec and at 1 Pa with 20 mm plates and 500 μm gap distance. […]

Substance: Arg-Ala-Asp-Ala-Arg-Ala-Asp-Ala-Arg-Ala-Asp-Ala-Arg-Ala-Asp-Ala [PuraMatrix®]
- Appearance ([1]; 0.1N NaOH 0 μL/mL, conc. 2.5%, pH 2.2): Clear, thick gel
- Appearance ([1]; 0.1N NaOH 50 μL/mL, conc. 2.38%, pH 2.3): Clear, thick gel
- Appearance ([1]; 0.1N NaOH 100 μL/mL, conc. 2.27%, pH 2.4): Clear, thick gel
- Appearance ([1]; 0.1N NaOH 150 μL/mL, conc. 2.17%, pH 2.7): Clear, thick,
- Appearance ([1]; 0.1N NaOH 200 μL/mL, conc. 2.08%, pH 2.9): Clear, thick,
- Appearance ([1]; 0.1N NaOH 250 μL/mL, conc. 2.0%, pH 3.2): Clear, thick,
- Appearance ([1]; 0.1N NaOH 275 μL/mL, conc. 1.96%, pH 3.4): Clear, thick,
- Appearance ([1]; 0.1N NaOH 300 μL/mL, conc. 1.92%, pH 3.6): Slightly cloudy,
- Appearance ([1]; 0.1N NaOH 350 μL/mL, conc. 1.85%, pH 4.5): Cloudy, phase-
- Peptide solution pH ([1]; 0.1N NaOH added in 2.5% solution 0 μL/mL, conc. 2.5%): 2.2
- Peptide solution pH ([1]; 0.1N NaOH added in 2.5% solution 50 μL/mL, conc. 2.38%): 2.3
- Peptide solution pH ([1]; 0.1N NaOH added in 2.5% solution 100 μL/mL, conc. 2.27%): 2.4
- Peptide solution pH ([1]; 0.1N NaOH added in 2.5% solution 150 μL/mL, conc. 2.17%): 2.7
- Peptide solution pH ([1]; 0.1N NaOH added in 2.5% solution 200 μL/mL, conc. 2.08%): 2.9
- Peptide solution pH ([1]; 0.1N NaOH added in 2.5% solution 250 μL/mL, conc. 2.0%): 3.2
- Peptide solution pH ([1]; 0.1N NaOH added in 2.5% solution 275 μL/mL, conc. 1.96%): 3.4
- Peptide solution pH ([1]; 0.1N NaOH added in 2.5% solution 300 μL/mL, conc. 1.92%): 3.6
- Peptide solution pH ([1]; 0.1N NaOH added in 2.5% solution 350 μL/mL, conc. 1.85%): 4.5
- Appearance ([1]; pH 7.0): Cloudy, phase-
- Appearance ([2]; PuraMatrix ® 0.5%, DPBS (pH 3.2) 1.0 M, ionic strength 1.0 M): Cloudy, phase-separated
- Appearance ([2]; PuraMatrix ® 0.55%, DPBS (pH 3.2) 0.95 M, ionic strength 0.95 M): Slightly cloudy, brittle gel
- Appearance ([2]; PuraMatrix ® 0.6%, DPBS (pH 3.2) 0.9 M, ionic strength 0.9 M): Clear, thick, stiffer gel
- Appearance ([2]; PuraMatrix ® 0.75%, DPBS (pH 3.2) 0.75 M, ionic strength 0.75 M): Clear, thick, stiffer gel
- Appearance ([2]; PuraMatrix ® 0.9%, DPBS (pH 3.2) 0.6 M, ionic strength 0.6 M): Clear, thick, stiffer gel
- Appearance ([2]; PuraMatrix ® 0.93%, KCl 1.15 M, ionic strength 1.15 M): Cloudy, phase-separated
- Appearance ([2]; PuraMatrix ® 0.95%, KCl 1.1 M, ionic strength 1.1 M): Slightly cloudy, brittle gel
- Appearance ([2]; PuraMatrix ® 0.98%, KCl 1.05 M, ionic strength 1.05 M): Slightly cloudy, thick, stiffer gel
- Appearance ([2]; PuraMatrix ® 1.0%, KCl 1.0 M, ionic strength 1.0 M): Clear, thick, stiffer gel
- Appearance ([2]; PuraMatrix ® 1.0%, NaCl 1.0 M, ionic strength 1.0 M): Cloudy, phase-separated
- Appearance ([2]; PuraMatrix ® 1.03%, KCl 0.95 M, ionic strength 0.95 M): Clear, thick, stiffer gel
- Appearance ([2]; PuraMatrix ® 1.03%, NaCl 0.95 M, ionic strength 0.95 M): Cloudy, phase-separated
- Appearance ([2]; PuraMatrix ® 1.05%, DPBS (pH 3.2) 0.45 M, ionic strength 0.45 M): Clear, thick, stiffer gel
- Appearance ([2]; PuraMatrix ® 1.05%, KCl 0.9 M, ionic strength 0.9 M): Clear, thick, stiffer gel
- Appearance ([2]; PuraMatrix ® 1.05%, NaCl 0.9 M, ionic strength 0.9 M): Slightly cloudy, brittle gel
- Appearance ([2]; PuraMatrix ® 1.08%, NaCl 0.85 M, ionic strength 0.85 M): Clear, thick, stiffer gel
- Appearance ([2]; PuraMatrix ® 1.10%, NaCl 0.8 M, ionic strength 0.8 M): Clear, thick, stiffer gel
- Appearance ([2]; PuraMatrix ® 1.13%, KCl 0.75 M, ionic strength 0.75 M): Clear, thick, stiffer gel
- Appearance ([2]; PuraMatrix ® 1.13%, NaCl 0.75 M, ionic strength 0.75 M): Clear, thick, stiffer gel
- Appearance ([2]; PuraMatrix ® 1.2%, DPBS (pH 3.2) 0.3 M, ionic strength 0.3 M): Clear, thick, stiffer gel
- Appearance ([2]; PuraMatrix ® 1.2%, KCl 0.6 M, ionic strength 0.6 M): Clear, thick, stiffer gel
- Appearance ([2]; PuraMatrix ® 1.2%, NaCl 0.6 M, ionic strength 0.6 M): Clear, thick, stiffer gel
- Appearance ([2]; PuraMatrix ® 1.27%, KCl 0.45 M, ionic strength 0.45 M): Clear, thick, stiffer gel
- Appearance ([2]; PuraMatrix ® 1.27%, NaCl 0.45 M, ionic strength 0.45 M): Clear, thick, stiffer gel
- Appearance ([2]; PuraMatrix ® 1.28%, CaCl2 0.433 M, ionic strength 1.3 M): Cloudy, phase-separated
- Appearance ([2]; PuraMatrix ® 1.28%, MgCl2 0.433 M, ionic strength 1.3 M): Cloudy, phase-separated
- Appearance ([2]; PuraMatrix ® 1.29%, CaCl2 0.417 M, ionic strength 1.25 M): Slightly cloudy, brittle gel
- Appearance ([2]; PuraMatrix ® 1.29%, MgCl2 0.417 M, ionic strength 1.25 M): Slightly cloudy, brittle gel
- Appearance ([2]; PuraMatrix ® 1.3%, CaCl2 0.4 M, ionic strength 1.2 M): Slightly cloudy, thick, stiffer gel
- Appearance ([2]; PuraMatrix ® 1.3%, MgCl2 0.4 M, ionic strength 1.2 M): Slightly cloudy, thick, stiffer gel
- Appearance ([2]; PuraMatrix ® 1.31%, CaCl2 0.383 M, ionic strength 1.15 M): Clear, thick, stiffer gel
- Appearance ([2]; PuraMatrix ® 1.31%, MgCl2 0.383 M, ionic strength 1.15 M): Clear, thick, stiffer gel
- Appearance ([2]; PuraMatrix ® 1.32%, CaCl2 0.35 M, ionic strength 1.05 M): Clear, thick, stiffer gel
- Appearance ([2]; PuraMatrix ® 1.32%, MgCl2 0.35 M, ionic strength 1.05 M): Clear, thick, stiffer gel
- Appearance ([2]; PuraMatrix ® 1.35%, CaCl2 0.3 M, ionic strength 0.9 M): Clear, thick, stiffer gel
- Appearance ([2]; PuraMatrix ® 1.35%, DPBS (pH 3.2) 0.15 M, ionic strength 0.15 M): Clear, thick, stiffer gel
- Appearance ([2]; PuraMatrix ® 1.35%, KCl 0.3 M, ionic strength 0.3 M): Clear, thick, stiffer gel
- Appearance ([2]; PuraMatrix ® 1.35%, MgCl2 0.3 M, ionic strength 0.9 M): Clear, thick, stiffer gel
- Appearance ([2]; PuraMatrix ® 1.35%, NaCl 0.3 M, ionic strength 0.3 M): Clear, thick, stiffer gel
- Appearance ([2]; PuraMatrix ® 1.38%, CaCl2 0.25 M, ionic strength 0.75 M): Clear, thick, stiffer gel
- Appearance ([2]; PuraMatrix ® 1.38%, MgCl2 0.25 M, ionic strength 0.75 M): Clear, thick, stiffer gel
- Appearance ([2]; PuraMatrix ® 1.4%, CaCl2 0.2 M, ionic strength 0.6 M): Clear, thick, stiffer gel
- Appearance ([2]; PuraMatrix ® 1.4%, MgCl2 0.2 M, ionic strength 0.6 M): Clear, thick, stiffer gel
- Appearance ([2]; PuraMatrix ® 1.43%, CaCl2 0.15 M, ionic strength 0.45 M): Clear, thick, stiffer gel
- Appearance ([2]; PuraMatrix ® 1.43%, KCl 0.15 M, ionic strength 0.15 M): Clear, thick, stiffer gel
- Appearance ([2]; PuraMatrix ® 1.43%, MgCl2 0.15 M, ionic strength 0.45 M): Clear, thick, stiffer gel
- Appearance ([2]; PuraMatrix ® 1.43%, NaCl 0.15 M, ionic strength 0.15 M): Clear, thick, stiffer gel
- Appearance ([2]; PuraMatrix ® 1.45%, CaCl2 0.1 M, ionic strength 0.3 M): Clear, thick, stiffer gel
- Appearance ([2]; PuraMatrix ® 1.45%, MgCl2 0.1 M, ionic strength 0.3 M): Clear, thick, stiffer gel
- Appearance ([2]; PuraMatrix ® 1.48%, CaCl2 0.05 M, ionic strength 0.15 M): Clear, thick, stiffer gel
- Appearance ([2]; PuraMatrix ® 1.48%, MgCl2 0.05 M, ionic strength 0.15 M): Clear, thick, stiffer gel
- Appearance ([2]; PuraMatrix ® 1.5%, CaCl2 0 M, ionic strength 0 M): Clear, thick gel
- Appearance ([2]; PuraMatrix ® 1.5%, DPBS (pH 3.2) 0 M, ionic strength 0 M): Clear, thick gel
- Appearance ([2]; PuraMatrix ® 1.5%, KCl 0 M, ionic strength 0 M): Clear, thick gel
- Appearance ([2]; PuraMatrix ® 1.5%, MgCl2 0 M, ionic strength 0 M): Clear, thick gel
- Appearance ([2]; PuraMatrix ® 1.5%, NaCl 0 M, ionic strength 0 M): Clear, thick gel
- salt ionic strength increase that did not change the clear color of the solution (apparent stiffness increased) ([2]; depending on different salts, 1.5% peptide solutions): 0.85˜1.15 M
- rheological properties of solutions at pH 3.4 [3]: higher
- gelation after saline buffer treatment [4]: no or negligible gelation
